Data as given in the supplement of paper PMC9876800.

Tested on: peptide library, one residue held at a place counted from the S/T acceptor
Test: relative phosphorylation of the sub-library (ratio to the mean residue at this position); human; higher = residue favoured
How it was run: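 Spots on streptavidin membranes were phosphorimaged and quantified by densitometry to measure phosphorylation of biotinylated degenerate peptide sub-libraries by purified recombinant kinases, human or orthologue constructs. The reactions ran in 384-well plates for 90 min under kinase-specific conditions, with peptides at 50 μM and 50 μM ATP spiked with γ-32P-ATP. Relative sub-library phosphorylation is the ratio to the mean residue at that position.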

Sequence of PAK1, construct: aa150-end (Q13153 150-545, looked up): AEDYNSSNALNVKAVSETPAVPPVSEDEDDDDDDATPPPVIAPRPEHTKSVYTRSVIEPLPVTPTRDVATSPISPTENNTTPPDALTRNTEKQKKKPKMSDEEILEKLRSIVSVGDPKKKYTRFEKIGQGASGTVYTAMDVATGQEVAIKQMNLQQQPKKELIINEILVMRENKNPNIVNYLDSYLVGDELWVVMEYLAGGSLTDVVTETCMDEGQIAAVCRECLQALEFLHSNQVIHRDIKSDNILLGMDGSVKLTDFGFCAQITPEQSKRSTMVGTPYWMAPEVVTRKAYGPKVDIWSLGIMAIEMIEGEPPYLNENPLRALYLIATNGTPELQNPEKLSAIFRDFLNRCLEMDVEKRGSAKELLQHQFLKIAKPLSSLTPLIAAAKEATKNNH
Sequence of NEK6, construct: Full length (Q9HC98 whole entry, looked up): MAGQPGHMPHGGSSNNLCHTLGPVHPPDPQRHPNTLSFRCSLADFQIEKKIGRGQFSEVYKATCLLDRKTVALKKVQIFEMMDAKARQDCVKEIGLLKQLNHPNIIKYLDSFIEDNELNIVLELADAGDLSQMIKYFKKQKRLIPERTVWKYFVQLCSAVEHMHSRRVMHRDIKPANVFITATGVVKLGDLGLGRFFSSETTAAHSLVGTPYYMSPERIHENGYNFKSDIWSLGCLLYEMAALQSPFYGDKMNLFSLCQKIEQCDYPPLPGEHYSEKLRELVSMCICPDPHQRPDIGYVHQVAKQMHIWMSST

PAK1, construct: aa150-end (from UniProt Q13153)
relative phosphorylation
Details	at +1	at +2	at +3	at +4	at -1	at -2	at -3	at -4	at -5
A fixed	0.877	1.16	0.875	1.05	0.946	0.789	0.87	1.27	1.39
D fixed	0.338	0.472	0.959	1.32	0.592	0.203	0.558	0.825	0.785
E fixed	0.428	0.398	1.09	1.29	0.559	0.206	0.495	0.85	0.676
F fixed	0.993	1.14	1.33	0.741	0.696	0.346	0.464	0.633	0.68
G fixed	0.895	0.726	1.22	1.24	0.782	0.526	0.869	1.4	1.44
H fixed	1.09	1.6	1.17	0.97	1.35	1.37	1.4	1.14	1.16
I fixed	1.03	1.1	0.826	0.773	0.564	0.551	0.41	0.529	0.55
K fixed	1.18	0.604	0.775	1.08	1.72	1.32	2.34	1.71	1.88
L fixed	0.969	1.09	1.04	0.77	0.821	0.374	0.415	0.547	0.53
M fixed	1.58	1.02	0.913	0.783	0.927	0.36	0.485	0.744	0.587
N fixed	0.895	0.885	0.971	1.11	1.19	0.518	0.965	1.01	1.03
P fixed	0.228	0.716	1.03	1.4	0.646	1.08	0.823	1.24	1.16
Q fixed	1.3	0.766	0.897	1.2	1.11	0.673	0.952	1.08	0.964
R fixed	1.46	0.793	0.841	0.95	2.22	6.99	4.23	1.99	2.04
V fixed	0.971	0.925	0.797	0.851	0.766	0.724	0.431	0.624	0.707
W fixed	1.57	0.978	1.03	0.806	0.886	0.369	0.703	0.756	0.668
Y fixed	1.19	2.62	1.22	0.652	1.22	0.6	0.594	0.672	0.762
pThr fixed	0.668	0.676	0.877	1.4	0.439	0.503	0.568	0.857	0.666
pTyr fixed	0.886	4.31	1.28	1.09	0.672	0.392	0.853	0.808	0.675

NEK6, construct: Full length (from UniProt Q9HC98)
relative phosphorylation
Details	at +1	at +2	at +3	at +4	at -1	at -2	at -3	at -4	at -5
A fixed	0.844	1.17	0.962	0.822	1.21	1.16	1.04	1.26	1.16
D fixed	0.481	0.764	0.624	0.699	1.47	2.91	0.911	2.11	2.07
E fixed	0.344	0.325	0.564	0.578	1.96	1.89	0.611	1.18	1.15
F fixed	1.46	0.69	0.987	0.886	0.525	0.647	1.61	0.839	0.875
G fixed	1.02	1.27	1.69	1.26	0.75	1.75	1.06	1.13	1.36
H fixed	1.2	1.23	1.13	1.02	1.13	0.982	0.792	0.894	0.979
I fixed	0.646	0.568	0.537	0.616	0.434	0.425	0.495	0.531	0.632
K fixed	0.65	1.61	1.4	1.78	1.22	0.663	0.48	0.837	0.849
L fixed	0.886	0.443	0.767	0.593	0.72	0.612	2.04	0.735	0.747
M fixed	1.57	0.747	0.704	0.626	0.859	0.789	1.2	0.71	0.753
N fixed	1.2	1.87	1.24	0.917	1.38	1.6	0.869	1.29	1.16
P fixed	0.367	0.985	1.12	1.4	0.326	0.521	1.78	1.32	1.09
Q fixed	1.68	0.722	1.02	1.07	1.56	0.728	0.62	0.894	0.819
R fixed	0.986	2.23	1.4	1.4	1.51	0.663	0.463	0.869	0.685
V fixed	0.602	0.533	0.568	0.707	0.578	0.436	0.503	0.549	0.88
W fixed	1.5	0.87	1.38	1.36	0.619	0.577	1.25	1.1	1.04
Y fixed	1.56	0.989	0.901	1.27	0.744	0.65	1.27	0.75	0.767
pThr fixed	0.602	0.396	0.534	0.628	0.494	0.773	0.677	0.906	0.992
pTyr fixed	0.822	0.356	0.653	0.545	2.57	1.53	1.01	1.01	0.799
